Measured values from publication PMC4788097 (Structure (London, England : 1993), 2013).

Assays:
Stx6 (3-110) [1] = biological target: T1, Stx6 (3-110) (human, UniProt O43752 3-110); assay: ITC
T1 sequence (looked up): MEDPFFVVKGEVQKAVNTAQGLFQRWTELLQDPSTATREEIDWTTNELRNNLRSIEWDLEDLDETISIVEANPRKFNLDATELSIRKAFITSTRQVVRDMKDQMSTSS

Stx10 (1-110) = biological target: T2, Stx10 (1-110) (human, UniProt O60499 1-110); assay: ITC
T2 sequence (looked up): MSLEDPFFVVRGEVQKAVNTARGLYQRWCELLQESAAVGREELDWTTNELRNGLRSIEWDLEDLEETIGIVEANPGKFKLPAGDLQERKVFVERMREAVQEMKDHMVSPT

Stx6 (3-110) [2] = biological target: T1, Stx6 (3-110); assay: crystal structure

B1: Ang2 (1-69) (domain or fragment, human, UniProt Q9UID3 1-69, looked up)
chain: MAAAAAAGPSPGSGPGDSPEGPEGEAPERRRKAHGMLKLYYGLSEGEAAGRPAGPDPLDPTDLNGAHFD
Stx6 (3-110) [1]
  Kd: 5.6 ± 0.7 µM
  stoichiometry N: 0.8
Stx10 (1-110)
  Kd: 6.5 ± 0.8 µM
  stoichiometry N: 0.7

B2: Ang2 peptide 33AHGMLKLYYGLSEGEAA49 (peptide)
peptide: AHGMLKLYYGLSEGEAA
Stx6 (3-110) [2]
  binding result: binds
